Test results reported in patent US5811267.

Legend:
[1] = target: P-glycoprotein (product of the human MDR1 gene) (human) (UniProt P08183); test: solid phase whole-cell ELISA, hybridoma supernatant on fixed BATV.2 cells (human MDR1 transfected 3T3) against parent BA3T3 cells
[2] = target: P-glycoprotein (product of the human MDR1 gene) (human) (UniProt P08183); test: indirect immunofluorescence on drug-resistant cell lines against drug-sensitive parental KB-3-1 cells

fold reaction on BATV.2 cells over parent BA3T3 cells [1]: > 2 fold | fold reaction on resistant cell lines over KB-3-1 cells [2]: > 2 fold
Substance: monoclonal antibody produced by the hybridoma cell line 15D3 (ATCC No. HB11342)
